# Assay results as given in patent publication US20200024330A1.
# Where a chain is given by its changes, count along the chain named.
# B1: PGT-127 (antibody, V domains shown)
# VH: QPQLQESGPGLVEASETLSLTCTVSGDSTGRCNYFWGWVRQPPGKGLEWIGSLSHCRSYYNTDWTYHNPSLKSRLTISLDTPKNQVFLRLTSVTAADTATYYCARFGGEVLVYRDWPKPAWVDLWGRGTLVVTVS
# VL: QSALTQPPSASGSPGQSITISCTGTSNNFVSWYQQYPGKAPKLVIYEVNKRPSGVPDRFSGSKSGSTASLTVSGLQADDEGVYYCSSLVGNWDVIFGGGTKLTVL
# B2: PGT-128 (antibody, V domains shown)
# VH: QPQLQESGPTLVEASETLSLTCAVSGDSTAACNSFWGWVRQPPGKGLEWVGSLSHCASYWNRGWTYHNPSLKSRLTLALDTPKNLVFLKLNSVTAADTATYYCARFGGEVLRYTDWPKPAWVDLWGRGTLVTVSS
# VL: B1 VL with Y36H, P37A, E47D, S66N, A77T, G81A, S86G
# Key:
# Assay in all cases: cell-based or functional assay
# [1] = biological target: Env of all HIV-1 pseudoviruses of the cross-clade 162-pseudovirus panel (n = 162)
# [2] = biological target: Env of the clade A HIV-1 pseudoviruses of the cross-clade 162-pseudovirus panel (n = 26)
# [3] = biological target: Env of the clade AG HIV-1 pseudoviruses of the cross-clade 162-pseudovirus panel (n = 10)
# [4] = biological target: Env of the clade B HIV-1 pseudoviruses of the cross-clade 162-pseudovirus panel (n = 31)
# [5] = biological target: Env of the clade C HIV-1 pseudoviruses of the cross-clade 162-pseudovirus panel (n = 27)
# [6] = biological target: Env of the clade F HIV-1 pseudoviruses of the cross-clade 162-pseudovirus panel (n = 15)
# [7] = biological target: HIV-1 Env of isolate 92TH021 (HIV-1)
# [8] = biological target: HIV-1 Env of isolate JR-CSF (HIV-1) (UniProt P20871)
# [9] = biological target: HIV-1 JR-CSF Env D417A (HIV-1 (isolate JR-CSF)) (UniProt P20871)
# [10] = biological target: HIV-1 JR-CSF Env E321aA (HIV-1 isolate JR-CSF) (UniProt P20871)
# [11] = biological target: HIV-1 JR-CSF Env F210A (HIV-1 JR-CSF) (UniProt P20871)
# [12] = biological target: HIV-1 JR-CSF Env F317A (HIV-1 isolate JR-CSF) (UniProt P20871)
# [13] = biological target: HIV-1 JR-CSF Env I414A (HIV-1 (isolate JR-CSF)) (UniProt P20871)
# [14] = biological target: HIV-1 JR-CSF Env I415A (HIV-1 (isolate JR-CSF)) (UniProt P20871)
# [15] = biological target: HIV-1 JR-CSF Env I423A (HIV-1 (isolate JR-CSF)) (UniProt P20871)
# [16] = biological target: HIV-1 JR-CSF Env I424A (HIV-1 (isolate JR-CSF)) (UniProt P20871)
# [17] = biological target: HIV-1 JR-CSF Env K305A (HIV-1 JR-CSF) (UniProt P20871)
# [18] = biological target: HIV-1 JR-CSF Env K421A (HIV-1 (isolate JR-CSF)) (UniProt P20871)
# [19] = biological target: HIV-1 JR-CSF Env L416A (HIV-1 (isolate JR-CSF)) (UniProt P20871)
# [20] = biological target: HIV-1 JR-CSF Env N241A (HIV-1 JR-CSF) (UniProt P20871)
# [21] = biological target: HIV-1 JR-CSF Env N262A (HIV-1 JR-CSF) (UniProt P20871)
# [22] = biological target: HIV-1 JR-CSF Env N301A (HIV-1 JR-CSF) (UniProt P20871)
# [23] = biological target: HIV-1 JR-CSF Env N302A (HIV-1 JR-CSF) (UniProt P20871)
# [24] = biological target: HIV-1 JR-CSF Env N332A (HIV-1 isolate JR-CSF) (UniProt P20871)
# [25] = biological target: HIV-1 JR-CSF Env N339A (HIV-1 isolate JR-CSF) (UniProt P20871)
# [26] = biological target: HIV-1 JR-CSF Env N355A (HIV-1 isolate JR-CSF) (UniProt P20871)
# [27] = biological target: HIV-1 JR-CSF Env N392Q (HIV-1 (isolate JR-CSF)) (UniProt P20871)
# [28] = biological target: HIV-1 JR-CSF Env Q337A (HIV-1 isolate JR-CSF) (UniProt P20871)
# [29] = biological target: HIV-1 JR-CSF Env Q422A (HIV-1 (isolate JR-CSF)) (UniProt P20871)
# [30] = biological target: HIV-1 JR-CSF Env R304A (HIV-1 JR-CSF) (UniProt P20871)
# [31] = biological target: HIV-1 JR-CSF Env R327A (HIV-1 isolate JR-CSF) (UniProt P20871)
# [32] = biological target: HIV-1 JR-CSF Env R419A (HIV-1 (isolate JR-CSF)) (UniProt P20871)
# [33] = biological target: HIV-1 JR-CSF Env S387A (HIV-1 (isolate JR-CSF)) (UniProt P20871)
# [34] = biological target: HIV-1 JR-CSF Env S393A (HIV-1 (isolate JR-CSF)) (UniProt P20871)
# [35] = biological target: HIV-1 JR-CSF Env T319A (HIV-1 isolate JR-CSF) (UniProt P20871)
# [36] = biological target: HIV-1 JR-CSF Env T341A (HIV-1 isolate JR-CSF) (UniProt P20871)
# [37] = biological target: HIV-1 JR-CSF Env T388A (HIV-1 (isolate JR-CSF)) (UniProt P20871)
# [38] = biological target: HIV-1 JR-CSF Env T413A (HIV-1 (isolate JR-CSF)) (UniProt P20871)
# [39] = biological target: HIV-1 JR-CSF Env V292A (HIV-1 JR-CSF) (UniProt P20871)
binder,measurement,setting,value
B1,Median IC50 against viruses neutralized with an IC50 <50 µg/ml,[1],0.08 µg/mL
same,Median IC50 against viruses neutralized with an IC50 <50 µg/ml,[2],0.02 µg/mL
same,Median IC50 against viruses neutralized with an IC50 <50 µg/ml,[3],0.04 µg/mL
same,Median IC50 against viruses neutralized with an IC50 <50 µg/ml,[4],0.06 µg/mL
same,Median IC50 against viruses neutralized with an IC50 <50 µg/ml,[5],0.55 µg/mL
same,Median IC50 against viruses neutralized with an IC50 <50 µg/ml,[6],0.65 µg/mL
same,"IC50 (µg/mL), pseudovirus neutralization",[7],> 50 µg/mL
same,Polyclonal Transfectant Neutralization Index (well 5145 B14),[7],0.94
same,Primary Neutralization Index (B cell culture well 5145 B14),[7],1
same,Polyclonal Transfectant Neutralization Index (well 5145 B14),[8],1.61
same,Primary Neutralization Index (B cell culture well 5145 B14),[8],31.1
same,Fold IC50 increase relative to wild-type,[9],0.4 fold
same,Fold IC50 increase relative to wild-type,[10],1.9 fold
same,Fold IC50 increase relative to wild-type,[11],0.8 fold
same,Fold IC50 increase relative to wild-type,[12],0.2 fold
same,Fold IC50 increase relative to wild-type,[13],2.2 fold
same,Fold IC50 increase relative to wild-type,[14],2.1 fold
same,Fold IC50 increase relative to wild-type,[15],0.5 fold
same,Fold IC50 increase relative to wild-type,[16],2 fold
same,Fold IC50 increase relative to wild-type,[17],2.6 fold
same,Fold IC50 increase relative to wild-type,[18],1.5 fold
same,Fold IC50 increase relative to wild-type,[19],1 fold
same,Fold IC50 increase relative to wild-type,[20],0.6 fold
same,Fold IC50 increase relative to wild-type,[21],1.4 fold
same,Fold IC50 increase relative to wild-type,[22],> 250 fold
same,Fold IC50 increase relative to wild-type,[23],3 fold
same,Fold IC50 increase relative to wild-type,[24],> 100 fold
same,Fold IC50 increase relative to wild-type,[25],1.1 fold
same,Fold IC50 increase relative to wild-type,[26],1.4 fold
same,Fold IC50 increase relative to wild-type,[27],1.1 fold
same,Fold IC50 increase relative to wild-type,[28],0.5 fold
same,Fold IC50 increase relative to wild-type,[29],0.1 fold
same,Fold IC50 increase relative to wild-type,[30],0.4 fold
same,Fold IC50 increase relative to wild-type,[31],1.8 fold
same,Fold IC50 increase relative to wild-type,[32],2.5 fold
same,Fold IC50 increase relative to wild-type,[33],1 fold
same,Fold IC50 increase relative to wild-type,[34],1.2 fold
same,Fold IC50 increase relative to wild-type,[35],1 fold
same,Fold IC50 increase relative to wild-type,[36],1.7 fold
same,Fold IC50 increase relative to wild-type,[37],0.5 fold
same,Fold IC50 increase relative to wild-type,[38],0.8 fold
same,Fold IC50 increase relative to wild-type,[39],0.9 fold
B2,Median IC50 against viruses neutralized with an IC50 <50 µg/ml,[1],0.07 µg/mL
same,Median IC50 against viruses neutralized with an IC50 <50 µg/ml,[2],0.01 µg/mL
same,Median IC50 against viruses neutralized with an IC50 <50 µg/ml,[3],0.67 µg/mL
same,Median IC50 against viruses neutralized with an IC50 <50 µg/ml,[4],0.01 µg/mL
same,Median IC50 against viruses neutralized with an IC50 <50 µg/ml,[5],0.04 µg/mL
same,Median IC50 against viruses neutralized with an IC50 <50 µg/ml,[6],0.52 µg/mL
same,Polyclonal Transfectant Neutralization Index (well 5114 A19),[7],10
same,Primary Neutralization Index (B cell culture well 5114 A19),[7],6.6
same,Polyclonal Transfectant Neutralization Index (well 5114 A19),[8],136
same,Primary Neutralization Index (B cell culture well 5114 A19),[8],77.5
same,Fold IC50 increase relative to wild-type,[9],0.5 fold
same,Fold IC50 increase relative to wild-type,[10],1.3 fold
same,Fold IC50 increase relative to wild-type,[11],0.8 fold
same,Fold IC50 increase relative to wild-type,[12],0.8 fold
same,Fold IC50 increase relative to wild-type,[13],1.4 fold
same,Fold IC50 increase relative to wild-type,[14],0.7 fold
same,Fold IC50 increase relative to wild-type,[15],2.6 fold
same,Fold IC50 increase relative to wild-type,[16],1.3 fold
same,Fold IC50 increase relative to wild-type,[17],1.8 fold
same,Fold IC50 increase relative to wild-type,[18],2 fold
same,Fold IC50 increase relative to wild-type,[19],1.1 fold
same,Fold IC50 increase relative to wild-type,[20],0.7 fold
same,Fold IC50 increase relative to wild-type,[21],1.6 fold
same,Fold IC50 increase relative to wild-type,[22],10.7 fold
same,Fold IC50 increase relative to wild-type,[23],1.5 fold
same,Fold IC50 increase relative to wild-type,[24],1.4 fold
same,Fold IC50 increase relative to wild-type,[25],0.8 fold
same,Fold IC50 increase relative to wild-type,[26],0.7 fold
same,Fold IC50 increase relative to wild-type,[27],0.9 fold
same,Fold IC50 increase relative to wild-type,[28],0.7 fold
same,Fold IC50 increase relative to wild-type,[29],0.2 fold
same,Fold IC50 increase relative to wild-type,[30],0.7 fold
same,Fold IC50 increase relative to wild-type,[31],2.5 fold
same,Fold IC50 increase relative to wild-type,[32],0.5 fold
same,Fold IC50 increase relative to wild-type,[33],1.2 fold
same,Fold IC50 increase relative to wild-type,[34],1.4 fold
same,Fold IC50 increase relative to wild-type,[35],0.5 fold
same,Fold IC50 increase relative to wild-type,[36],1.3 fold
same,Fold IC50 increase relative to wild-type,[37],1 fold
same,Fold IC50 increase relative to wild-type,[38],1 fold
same,Fold IC50 increase relative to wild-type,[39],2.1 fold
